Measurements as given in the supplement of paper PMC10567573.

B1: ZNF511 (parent)
chain: AAPFRFVARPVRFPREHQFFEDGD
B2: LRRC45 (parent)
chain: FQTRQEMTSMSAELKMRAIQAEER

Variants of: B1
Assay: protein stability index of a GFP-peptide fusion (GPS, HEK-293T) (PSI 1-6); higher = more stable
Conditions: c terminus: a fixed tail appended
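Note: lentivirally expressed fusions sorted by FACS into six bins by GFP to DsRed ratio, PSI derived from sequencing read proportions per bin multiplied by bin number.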

With AAPFRFVARPVRFPREHQFFEDGR [D24R] as the variant, how does the protein stability index read?
Its protein stability index is 2.04.

For AAPFRFVARPVRFPREHQFFEDGE [D24E], which protein stability index is on record?
Its protein stability index is 3.01.

Which protein stability index does the source give for AAPFRFVARPVRFPREHQFFEDGQ [D24Q] here?
The protein stability index was 2.06.

Which protein stability index does the source give for AAPFRFVARPVRFPREHQFFEDGT [D24T] here?
The protein stability index was 1.72.

For AAPFRFVARPVRFPREHQFFEDGL [D24L], which protein stability index is on record?
The protein stability index was 2.04.

With AAPFRFVARPVRFPREHQFFEDGK [D24K] as the variant, how does the protein stability index read?
Its protein stability index is 2.97.

With AAPFRFVARPVRFPREHQFFEDGG [D24G] as the variant, how does the protein stability index read?
The protein stability index was 2.08.

For AAPFRFVARPVRFPREHQFFEDGW [D24W], which protein stability index is on record?
The protein stability index was 2.32.

Which protein stability index does the source give for AAPFRFVARPVRFPREHQFFEDGM [D24M] here?
Its protein stability index is 1.49.

For AAPFRFVARPVRFPREHQFFEDGN [D24N], which protein stability index is on record?
Its protein stability index is 2.88.

Which protein stability index does the source give for AAPFRFVARPVRFPREHQFFEDGS [D24S] here?
The protein stability index was 2.01.

With AAPFRFVARPVRFPREHQFFEDGY [D24Y] as the variant, how does the protein stability index read?
Its protein stability index is 1.83.

Which protein stability index does the source give for AAPFRFVARPVRFPREHQFFEDGC [D24C] here?
Its protein stability index is 2.29.

For AAPFRFVARPVRFPREHQFFEDGA [D24A], which protein stability index is on record?
The protein stability index was 2.23.

With AAPFRFVARPVRFPREHQFFEDGP [D24P] as the variant, how does the protein stability index read?
The protein stability index was 2.1.

Which protein stability index does the source give for AAPFRFVARPVRFPREHQFFEDGH [D24H] here?
The protein stability index was 1.66.

Which protein stability index does the source give for AAPFRFVARPVRFPREHQFFEDGI [D24I] here?
Its protein stability index is 1.53.

Which protein stability index does the source give for AAPFRFVARPVRFPREHQFFEDGV [D24V] here?
Its protein stability index is 2.73.

With AAPFRFVARPVRFPREHQFFEDGF [D24F] as the variant, how does the protein stability index read?
Its protein stability index is 1.83.

With AAPFRFVARPVRFPREHQFWEDGD [F20W] as the variant, how does the protein stability index read?
Its protein stability index is 1.9.

For AAPFRFVARPVRFPREHQFTEDGD [F20T], which protein stability index is on record?
Its protein stability index is 2.5.

For AAPFRFVARPVRFPREHQFYEDGD [F20Y], which protein stability index is on record?
The protein stability index was 2.6.

With AAPFRFVARPVRFPREHQFVEDGD [F20V] as the variant, how does the protein stability index read?
The protein stability index was 2.85.

With AAPFRFVARPVRFPREHQFFEMGD [D22M] as the variant, how does the protein stability index read?
The protein stability index was 1.72.

For AAPFRFVARPVRFPREHQFFEEGD [D22E], which protein stability index is on record?
Its protein stability index is 1.98.

Which protein stability index does the source give for AAPFRFVARPVRFPREHQFFEVGD [D22V] here?
Its protein stability index is 2.65.

For AAPFRFVARPVRFPREHQFFEHGD [D22H], which protein stability index is on record?
The protein stability index was 2.54.

For AAPFRFVARPVRFPREHQFFEWGD [D22W], which protein stability index is on record?
Its protein stability index is 2.02.

With AAPFRFVARPVRFPREHQFFEKGD [D22K] as the variant, how does the protein stability index read?
The protein stability index was 1.52.

Which protein stability index does the source give for AAPFRFVARPVRFPREHQFFEYGD [D22Y] here?
Its protein stability index is 2.16.

With AAPFRFVARPVRFPREHQFFEIGD [D22I] as the variant, how does the protein stability index read?
Its protein stability index is 1.64.

Which protein stability index does the source give for AAPFRFVARPVRFPREHQFFETGD [D22T] here?
The protein stability index was 2.29.

Which protein stability index does the source give for AAPFRFVARPVRFPREHQFFEAGD [D22A] here?
Its protein stability index is 1.94.

With AAPFRFVARPVRFPREHQFFELGD [D22L] as the variant, how does the protein stability index read?
The protein stability index was 2.01.

Which protein stability index does the source give for AAPFRFVARPVRFPREHQFFENGD [D22N] here?
The protein stability index was 2.25.

Which protein stability index does the source give for AAPFRFVARPVRFPREHQFFESGD [D22S] here?
Its protein stability index is 2.29.

Which protein stability index does the source give for AAPFRFVARPVRFPREHQFFEQGD [D22Q] here?
The protein stability index was 2.

Which protein stability index does the source give for AAPFRFVARPVRFPREHQFFEPGD [D22P] here?
The protein stability index was 2.44.

For AAPFRFVARPVRFPREHQFFECGD [D22C], which protein stability index is on record?
The protein stability index was 2.08.

With AAPFRFVARPVRFPREHQFFEGGD [D22G] as the variant, how does the protein stability index read?
Its protein stability index is 2.34.

For AAPFRFVARPVRFPREHQFFKDGD [E21K], which protein stability index is on record?
Its protein stability index is 2.19.

For AAPFRFVARPVRFPREHQFFQDGD [E21Q], which protein stability index is on record?
Its protein stability index is 2.

For AAPFRFVARPVRFPREHQFFTDGD [E21T], which protein stability index is on record?
The protein stability index was 1.64.

With AAPFRFVARPVRFPREHQFFPDGD [E21P] as the variant, how does the protein stability index read?
The protein stability index was 2.45.

With AAPFRFVARPVRFPREHQFFWDGD [E21W] as the variant, how does the protein stability index read?
Its protein stability index is 1.69.

With AAPFRFVARPVRFPREHQFFCDGD [E21C] as the variant, how does the protein stability index read?
The protein stability index was 1.91.

With AAPFRFVARPVRFPREHQFFMDGD [E21M] as the variant, how does the protein stability index read?
The protein stability index was 1.76.

Which protein stability index does the source give for AAPFRFVARPVRFPREHQFFLDGD [E21L] here?
The protein stability index was 1.92.

For AAPFRFVARPVRFPREHQFFSDGD [E21S], which protein stability index is on record?
Its protein stability index is 2.24.

Which protein stability index does the source give for AAPFRFVARPVRFPREHQFFHDGD [E21H] here?
The protein stability index was 2.5.

With AAPFRFVARPVRFPREHQFFADGD [E21A] as the variant, how does the protein stability index read?
The protein stability index was 1.96.

For AAPFRFVARPVRFPREHQFFYDGD [E21Y], which protein stability index is on record?
Its protein stability index is 1.92.

With AAPFRFVARPVRFPREHQFFRDGD [E21R] as the variant, how does the protein stability index read?
The protein stability index was 1.92.

For AAPFRFVARPVRFPREHQFFGDGD [E21G], which protein stability index is on record?
The protein stability index was 3.51.

With AAPFRFVARPVRFPREHQFFFDGD [E21F] as the variant, how does the protein stability index read?
The protein stability index was 1.65.

For AAPFRFVARPVRFPREHQFFNDGD [E21N], which protein stability index is on record?
Its protein stability index is 2.29.

Which protein stability index does the source give for AAPFRFVARPVRFPREHQFFIDGD [E21I] here?
Its protein stability index is 1.97.

With AAPFRFVARPVRFPREHQFFDDGD [E21D] as the variant, how does the protein stability index read?
The protein stability index was 2.

Which protein stability index does the source give for AAPFRFVARPVRFPREHQFFVDGD [E21V] here?
Its protein stability index is 2.07.

For AAPFRFVARPVRFPREHQFFEDHD [G23H], which protein stability index is on record?
The protein stability index was 2.18.

With AAPFRFVARPVRFPREHQFFEDRD [G23R] as the variant, how does the protein stability index read?
The protein stability index was 2.24.

Which protein stability index does the source give for AAPFRFVARPVRFPREHQFFEDLD [G23L] here?
Its protein stability index is 2.56.

With AAPFRFVARPVRFPREHQFFEDAD [G23A] as the variant, how does the protein stability index read?
Its protein stability index is 2.29.

Which protein stability index does the source give for AAPFRFVARPVRFPREHQFFEDFD [G23F] here?
Its protein stability index is 1.61.

Which protein stability index does the source give for AAPFRFVARPVRFPREHQFFEDMD [G23M] here?
The protein stability index was 1.91.

For AAPFRFVARPVRFPREHQFFEDTD [G23T], which protein stability index is on record?
Its protein stability index is 2.5.

With AAPFRFVARPVRFPREHQFFEDKD [G23K] as the variant, how does the protein stability index read?
Its protein stability index is 2.53.

With AAPFRFVARPVRFPREHQFFEDDD [G23D] as the variant, how does the protein stability index read?
Its protein stability index is 2.77.

For AAPFRFVARPVRFPREHQFFEDWD [G23W], which protein stability index is on record?
The protein stability index was 2.02.

Which protein stability index does the source give for AAPFRFVARPVRFPREHQFFEDID [G23I] here?
Its protein stability index is 1.51.

With AAPFRFVARPVRFPREHQFFEDVD [G23V] as the variant, how does the protein stability index read?
The protein stability index was 1.9.

Which protein stability index does the source give for AAPFRFVARPVRFPREHQFFEDSD [G23S] here?
Its protein stability index is 2.49.

Which protein stability index does the source give for AAPFRFVARPVRFPREHQFFEDCD [G23C] here?
The protein stability index was 1.67.

Which protein stability index does the source give for AAPFRFVARPVRFPREHQFFEDYD [G23Y] here?
Its protein stability index is 2.35.

With AAPFRFVARPVRFPREHQFFEDED [G23E] as the variant, how does the protein stability index read?
The protein stability index was 2.25.

For AAPFRFVARPVRFPREHQFFEDND [G23N], which protein stability index is on record?
Its protein stability index is 2.36.

Which protein stability index does the source give for AAPFRFVARPVRFPREHQFFEDPD [G23P] here?
The protein stability index was 2.69.

For AAPFRFVARPVRFPREHQFFEDQD [G23Q], which protein stability index is on record?
Its protein stability index is 2.45.

Variants of: B2
Assay: as above
Conditions: c terminus: a fixed tail appended

With FQTRQPMTSMSAELKMRAIQAEER [E6P] as the variant, how does the protein stability index read?
Its protein stability index is 2.78.

With FQTRQFMTSMSAELKMRAIQAEER [E6F] as the variant, how does the protein stability index read?
Its protein stability index is 2.27.

For FQTRQLMTSMSAELKMRAIQAEER [E6L], which protein stability index is on record?
Its protein stability index is 3.03.

Which protein stability index does the source give for FQTRQQMTSMSAELKMRAIQAEER [E6Q] here?
Its protein stability index is 3.44.

Which protein stability index does the source give for FQTRQGMTSMSAELKMRAIQAEER [E6G] here?
The protein stability index was 3.48.

With FQTRQCMTSMSAELKMRAIQAEER [E6C] as the variant, how does the protein stability index read?
Its protein stability index is 3.33.

For FQTRQSMTSMSAELKMRAIQAEER [E6S], which protein stability index is on record?
The protein stability index was 4.01.

Which protein stability index does the source give for FQTRQHMTSMSAELKMRAIQAEER [E6H] here?
The protein stability index was 3.02.

Which protein stability index does the source give for FQTRQNMTSMSAELKMRAIQAEER [E6N] here?
Its protein stability index is 3.87.

For FQTRQRMTSMSAELKMRAIQAEER [E6R], which protein stability index is on record?
Its protein stability index is 3.72.

Which protein stability index does the source give for FQTRQKMTSMSAELKMRAIQAEER [E6K] here?
The protein stability index was 3.53.

With FQTRQDMTSMSAELKMRAIQAEER [E6D] as the variant, how does the protein stability index read?
Its protein stability index is 3.63.

With FQTRQMMTSMSAELKMRAIQAEER [E6M] as the variant, how does the protein stability index read?
The protein stability index was 3.36.

Which protein stability index does the source give for FQTRQIMTSMSAELKMRAIQAEER [E6I] here?
The protein stability index was 2.5.

Which protein stability index does the source give for FQTRQAMTSMSAELKMRAIQAEER [E6A] here?
Its protein stability index is 3.42.

For FQTRDEMTSMSAELKMRAIQAEER [Q5D], which protein stability index is on record?
The protein stability index was 4.71.
